# T1: IL-33ox (Homo sapiens, UniProt O95760)
# T1 chain: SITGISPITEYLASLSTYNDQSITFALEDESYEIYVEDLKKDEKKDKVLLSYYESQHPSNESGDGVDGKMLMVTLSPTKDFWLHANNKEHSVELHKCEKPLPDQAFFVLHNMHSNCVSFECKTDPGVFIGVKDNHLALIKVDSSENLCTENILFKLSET
# T2: IL-33red (Homo sapiens, UniProt O95760)
# T2 chain: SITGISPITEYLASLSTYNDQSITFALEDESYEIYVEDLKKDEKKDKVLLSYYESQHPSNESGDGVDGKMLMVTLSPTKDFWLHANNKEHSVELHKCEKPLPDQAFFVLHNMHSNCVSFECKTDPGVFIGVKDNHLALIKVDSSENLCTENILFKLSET
# T3: endogenous IL-33^red derived from human lung tissue (mixture of full-length and N-terminally truncated forms) (human (endogenous in lung tissue), UniProt O95760 1-270)
# T3 sequence (looked up): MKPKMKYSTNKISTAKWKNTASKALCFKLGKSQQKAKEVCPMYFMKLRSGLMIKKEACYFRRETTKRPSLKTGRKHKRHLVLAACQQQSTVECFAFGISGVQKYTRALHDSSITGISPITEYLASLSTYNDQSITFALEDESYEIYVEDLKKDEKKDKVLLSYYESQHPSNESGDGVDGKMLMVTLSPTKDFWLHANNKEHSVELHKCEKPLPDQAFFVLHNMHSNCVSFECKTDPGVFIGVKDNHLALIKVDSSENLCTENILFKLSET
# B1: reduced interleukin-33 (IL-33^red), recombinant human, residues 112–270 (ligand, UniProt O95760 112-270, looked up)
# chain: SITGISPITEYLASLSTYNDQSITFALEDESYEIYVEDLKKDEKKDKVLLSYYESQHPSNESGDGVDGKMLMVTLSPTKDFWLHANNKEHSVELHKCEKPLPDQAFFVLHNMHSNCVSFECKTDPGVFIGVKDNHLALIKVDSSENLCTENILFKLSET
# notes: interleukin-33, human, residues 112–270, reduced form (free cysteines); Other assays used a biotinylated Avi-tag histidine-tag form or an N-terminally tagged form; also called wild-type IL-33; source: recombinant
# B2: soluble serum stimulated 2 (sST2), the truncated, soluble form of ST2 (receptor, UniProt Q01638-2 19-328, looked up)
# chain: KFSKQSWGLENEALIVRCPRQGKPSYTVDWYYSQTNKSIPTQERNRVFASGQLLKFLPAAVADSGIYTCIVRSPTFNRTGYANVTIYKKQSDCNVPDYLMYSTVSGSEKNSKIYCPTIDLYNWTAPLEWFKNCQALQGSRYRAHKSFLVIDNVMTEDAGDYTCKFIHNENGANYSVTATRSFTVKDEQGFSLFPVIGAPAQNEIKEVEIGKNANLTCSACFGKGTQFLAAVLWQLNGTKITDFGEPRIQQEEGQNQSFSNGLACLDMVLRIADVKEEDLLLQYDCLALNLHGLRRHTVRLSRKNPSKECF
# Legend:
# [1] = target: B2; experiment: KinExA (kinetic exclusion assay); measurement of the association rate constant (ka) of IL-33 interacting with sST2 in free solution; settings: both partners purified
# [2] = target: B2; experiment: KinExA (kinetic exclusion assay); equilibrium in free solution; IL-33^red against fixed sST2 (30 pM and 2.0 pM datasets), 1:1 binding model fitted to both datasets simultaneously; settings: both partners purified
# [3] = target: T1, IL-33ox; experiment: SPR
# [4] = target: T2, IL-33red; experiment: KinExA
# [5] = target: T3, endogenous IL-33^red derived from human …; experiment: cell-based or functional assay
# [6] = target: B1; experiment: cell-based or functional assay
binder,measurement,setting,value
B1,kon,[1],1.5e+08 M⁻¹ s⁻¹
same,Kd,[2],0.09 pM
"tozorakimab Fab (antibody, V domains shown, oxidized IL-33) VH: EVQLLESGGGLVQPGGSLRLSCAASGFTFSSYAMSWVRQAPGKGLEWVSGISAIDQSTYYADSVKGRFTISRDNSKNTLYLQMNSLRAEDTAVYYCARQKFMQLWGGGLRYPFGYWGQGTMVTVSS VL: SYVLTQPPSVSVSPGQTASITCSGEGMGDKYAAWYQQKPGQSPVLVIYRDTKRPSGIPERFSGSNSGNTATLTISGTQAMDEADYYCGVIQDNTGVFGGGTKLTVLG",Kd,[3],41000 pM
"tozorakimab (antibody, V domains shown) VH: EVQLLESGGGLVQPGGSLRLSCAASGFTFSSYAMSWVRQAPGKGLEWVSGISAIDQSTYYADSVKGRFTISRDNSKNTLYLQMNSLRAEDTAVYYCARQKFMQLWGGGLRYPFGYWGQGTMVTVSS VL: SYVLTQPPSVSVSPGQTASITCSGEGMGDKYAAWYQQKPGQSPVLVIYRDTKRPSGIPERFSGSNSGNTATLTISGTQAMDEADYYCGVIQDNTGVFGGGTKLTVLG",Kd,[4],0.03 pM
B2,IC50 of inhibition of IL-8 release from HUVECs treated with human lung lysate (endogenous IL-33^red),[5],32 pM
same,IC50 of inhibition of IL-8 release from HUVECs driven by recombinant human IL-33^red (residues 112–270),[6],424 pM

# Source: article PMC10276851, “Tozorakimab (MEDI3506): an anti-IL-33 antibody that inhibits IL-33 signalling via ST2 and RAGE/EGFR to reduce inflammation and epithelial dysfunction” (Scientific Reports, 2023)
